Tests used:
[1] = target: evolved variant of mature Streptomyces mobaraensis transglutaminase, including a two amino acid linker and hexa-his tag (Streptomyces mobaraensis) (UniProt P81453); assay: cell-based or functional assay
[2] = target: T1, mature evolved transglutaminase (SEQ ID NO: 5) (Streptomyces mobaraensis, UniProt P81453, G359A/K167H/K227R/K228R/N358M/Q126S/Q150A/Q200L); assay: casein assay, inhibition by pro-peptide variants (Method B, activated zymogen); type: biochemical; set-up: key: The symbol, —, represents not determined, neutral, or reduced performance; details: relative to wild-type pro-peptide, diluted approximately 20-fold into casein assay solution
T1 construct: hexa-His tag with two amino acid linker (C); made in house; host or cells: E. coli BL21 (DE3)
Description: Method B. The gene coding for a Pro-transglutaminase (i.e., zymogen form of transglutaminase) variant with the wild-type pro-domain (SEQ ID NO: 2) and an evolved mature domain including a C-terminal His tag (SEQ ID NO: 5), and was cloned into a pET vector operatively linked to the T7 promoter. The expression vector also contains the pMB1 origin of replication and a kanamycin resistance gene. The resulting plasmid was transformed first into E. coli DH-10B, using standard methods known in the art. […]
(§1) A secondary screen was performed to determine initial rate of transglutaminase in the presence of the pro-peptide variants using transglutaminase-catalyzed labeling of casein with dansylcadaverine (e.g., a commercially available kit such as the Transglutaminase Fluorogenic Activity Assay Kit, T036, Zedira, Germany). Transglutaminase activity was monitored by measuring the fluorescence (excitation wavelength 332 nm; emission wavelength 500 nm) using a BioTek Synergy H1 microplate reader. Transglutaminase-catalyzed covalent coupling (crosslinking) of monodansylcadaverine with N,N-dimethylcasein produces a product that causes a shift in intensity and wavelength of fluorescence of the dansyl group now linked to the casein. The relative transglutaminase activity is shown by increase of fluorescence intensity over time. […]

[3] = target: T1, mature evolved transglutaminase (SEQ ID NO: 5); assay: transglutaminase thermostability: activity after being held at 37-50 °C; type: biochemical; set-up: key: The symbol, —, represents not determined, neutral, or reduced performance; details: relative to wild-type pro-peptide; held at 37° C.-50° C. for 30 minutes, diluted 10-fold to 100-fold
Experimental: The terms “stability” and “thermostability” are used interchangeably to refer to increased residual activity of mature transglutaminase after incubation at elevated temperatures. In some embodiments, a pro-peptide variant increases the stability of a mature transglutaminase compared to the wild type pro-peptide. Measurement of stability is depicted in Example 4.
It is believed that these pro-peptide variants confer thermal stability to mature transglutaminase.

[4] = target: T2, thermostable mature transglutaminase variant (SEQ ID NO: 3) (Streptomyces mobaraensis, UniProt P81453); type: biochemical; details: casein assay; Method A
T2 construct: made in house; host or cells: E. coli (lysate)
Description: (§2) Method A. A bicistronic expression vector encoding the wild-type pro-domain of transglutaminase (SEQ ID NO: 2) and a thermostable mature transglutaminase variant (SEQ ID NO: 3) as separate polypeptides was cloned as described in PCT/US20/49226 (WO2021/178001 A1). The vector was used as a template for synthesis of a random mutagenesis library targeting the pro-domain coding sequence to create pro-domain peptide variants.
Method A. Plasmid libraries containing mature transglutaminase and variant pro-domain peptides were plated on Luria-Bertani (LB) agar plates containing 50 μg/mL of kanamycin. After incubation for at least 16 hours at 37° C., colonies were picked and inoculated into 1 mL of LB broth with 50 μg/mL kanamycin in one well of a 96 deep well culture plate. The plate was covered with a breathable seal and incubated overnight at 37° C. with 400 rpm of shaking. 10 μL of the seed culture was used to inoculate 1 mL of media in a 96 deep well culture plate for expression. The expression plate was allowed to grow for 6-8 hours at 30° C. Expression was then induced by adding isopropyl beta-D-1-thiogalactopyranoside (IPTG) to a final concentration of 1 mM and the temperature was reduced to 20° C. while growth continued for an additional 15 hours. Cells were harvested by centrifugation at 4000 rcf for 30 minutes and pellets were frozen at −80° C.
as §1, with “time. The data were normalized for transglutaminase expression levels in E. coli lysate as described above. Pro-domain variants were identified based on their ability to alter the activity of the mature transglutaminase enzyme.” for “time.”
It is believed that these pro-peptide variants have reduced binding affinity with mature mTgase.

[5] = target: T2, thermostable mature transglutaminase variant (SEQ ID NO: 3); assay: pH-responsiveness screen: casein/dansylcadaverine assay at pH 6.0 and pH 8.0 in the presence of pro-peptide variants (Method A); type: biochemical; details: casein assay
Description: as §2
Method A. Plasmid libraries containing mature transglutaminase and variant pro-domain peptides were plated on Luria-Bertani (LB) agar plates containing 50 μg/mL of kanamycin. […]
as §1, with “casein.” for “casein. The relative transglutaminase activity is shown by increase of fluorescence intensity over time.”

E. coli ATCC 8739 = assay: MIC determination of bacterial cultures (OD600); type: cell-based; details: E. coli ATCC 8739, Mueller Hinton broth
Experimental: E. coli ATCC 8739 and C. albicans ATCC 10231 were acquired from the American Type Culture Collection (ATCC) (Manassas, VA) and maintained as −80° C. frozen glycerol stocks.
For Minimum Inhibitor Concentration (MIC) determination of bacterial cultures, E. coli ATCC 8739 was grown overnight (16-18 hours) in Mueller Hinton broth at 37° C. The following day, the cell density of the saturated cultures was calculated using OD600 and cultures were diluted to 10^4 to 10^6 CFU/mL in sterile Mueller Hinton broth to generate the inoculum, and 100 μL of the inoculum was combined with 100 μL of serially diluted transglutaminase variant at a range of 0.0001-0.05 weight percent. Growth curves were measured by OD600 on a BioTek® Synergy Plate Reader. All test conditions were performed in triplicate. MIC was determined to be 50 ppm (0.005% w/v) against E. coli for the enzyme described in SEQ ID NO: 5 using OD600.

T1 sequence (P81453 other isoform, or with tags, fused parts or gaps Q126S/Q150A/K167H/Q200L/K227R/K228R/N358M/G359A): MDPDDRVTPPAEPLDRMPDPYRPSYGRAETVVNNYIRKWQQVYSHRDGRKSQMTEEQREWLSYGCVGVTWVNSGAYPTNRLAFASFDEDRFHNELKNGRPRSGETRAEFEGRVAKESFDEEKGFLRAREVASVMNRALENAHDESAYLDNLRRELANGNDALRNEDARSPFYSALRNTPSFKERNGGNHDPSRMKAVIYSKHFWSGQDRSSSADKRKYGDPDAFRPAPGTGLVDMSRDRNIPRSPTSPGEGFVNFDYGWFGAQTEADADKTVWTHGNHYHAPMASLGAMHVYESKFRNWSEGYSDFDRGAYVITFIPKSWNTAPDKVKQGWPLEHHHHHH

## pro-peptide variant D2I, E2S, D21T (Method B)
[1]
  Inhibition: > 2 fold

## D21T: substitution variant of pro-peptide SEQ ID NO: 2 (MDNGAGEETKSYAETYRLTATDVANINALNESAPAASSAGPSFRAP) [Variant D21T]
[2]
  Inhibition: —

## D2I, E2S, D21T: combination variant of pro-peptide SEQ ID NO: 2, Method B; E2S probably E7S (MINGAGSETKSYAETYRLTATDVANINALNESAPAASSAGPSFRAP)
[2]
  Inhibition: >2 fold
[3]
  Thermostability: —

B1: SEQ ID NO: 4 (protein)
chain: MDNGAGEETKSYAETYRLTADDVLNINAETYRLTADDVRNINALNESAPAASSAGPSFRAP
[4]
  transglutaminase activity relative to the wild-type pro-peptide: decrease in transglutaminase activity relative to the wild-type pro-peptide
[5]
  activity at pH 6.0 relative to pH 8.0 compared to the wild-type pro-peptide: increase in activity at pH 6.0 relative to pH 8.0 compared to the wild-type pro-peptide

B2: SEQ ID NO: 3: thermostable variant of Streptomyces mobaraensis transglutaminase (protein)
chain: MDPDDRVTPPAEPLDRMPDPYRPSYGRAETVVNNYIRKWQQVYSHRDGRKQQMTEEQREWLSYGCVGVTWVNSGQYPTNRLAFASFDEDRFKNELKNGRPRSGETRAEFEGRVAKESFDEEKGFQRAREVASVMNRALENAHDESAYLDNLKKELANGNDALRNEDARSPFYSALRNTPSFKERNGGNHDPSRMKAVIYSKHFWSGQDRSSSADKRKYGDPDAFRPAPGTGLVDMSRDRNIPRSPTSPGEGFVNFDYGWFGAQTEADADKTVWTHGNHYHAPNGSLGAMHVYESKFRNWSEGYSDFDRGAYVITFIPKSWNTAPDKVKQGWP
E. coli ATCC 8739
  MIC: outside the range of detection

Reference: patent US20250304927A1, “PRO-PEPTIDE VARIANTS FOR MODULATING ACTIVITY OF TRANSGLUTAMINASES” (CURIE CO. INC., priority 2022, published 2025)
